One block for each substance: values may come before it.
Key:
[1] = biological target: Chicken skeletal muscle α-actin (F-actin, unlabeled) (chicken) (UniProt P68139); assay: co-sedimentation; increasing tropomyosin (0-10 µM) mixed with 5 µM actin in F-buffer (2 mM HEPES, pH 7.6, 40 mM NaCl, 5 mM MgCl2) at 22°C, ultracentrifuged; supernatants and pellets on SDS-PAGE; apparent constants (Kapp)
[2] = biological target: Chicken skeletal muscle α-actin (F-actin, unlabeled) (chicken) (UniProt P68139)
[3] = biological target: Chicken skeletal muscle α-actin labeled with DABMI at Cys374 (chicken) (UniProt P68139)

Substance: Ala232Cys-TM1b9a labeled with AEDANS
Ka [1]: 1.24e+07 M⁻¹

Substance: Chimeric rat α-tropomyosin TM1b9a
Ka [1]: 1.27e+07 M⁻¹

Substance: Recombinant rat non-muscle α-tropomyosin isoform TM5a (natural protein)
Ka [1]: 1.42e+07 M⁻¹

Next, values leading:

Actin–myosin S1 ATPase activity in the presence of TM1b9a/A232C; 0.8 µM S1, 9.2 µM F-actin, 1.2 µM tropomyosin (nmol Pi/mg S1/min) [2]: 126
Actin–myosin S1 ATPase activity in the presence of TM1b9a; 0.8 µM S1, 9.2 µM F-actin, 1.2 µM tropomyosin (nmol Pi/mg S1/min) [2]: 108
Actin–myosin S1 ATPase activity in the presence of TM2/S269C; 0.8 µM S1, 9.2 µM F-actin, 1.2 µM tropomyosin (nmol Pi/mg S1/min) [2]: 112
Actin–myosin S1 ATPase activity in the presence of TM2; 0.8 µM S1, 9.2 µM F-actin, 1.2 µM tropomyosin (nmol Pi/mg S1/min) [2]: 91.7
Actin–myosin S1 ATPase activity in the presence of TM5a/S232C; 0.8 µM S1, 9.2 µM F-actin, 1.2 µM tropomyosin (nmol Pi/mg S1/min) [2]: 184
Actin–myosin S1 ATPase activity in the presence of TM5a; 0.8 µM S1, 9.2 µM F-actin, 1.2 µM tropomyosin (nmol Pi/mg S1/min) [2]: 169
Actin–myosin S1 ATPase activity in the presence of skTM/A269C; 0.8 µM S1, 9.2 µM F-actin, 1.2 µM tropomyosin (nmol Pi/mg S1/min) [2]: 104
Actin–myosin S1 ATPase activity in the presence of skTM; 0.8 µM S1, 9.2 µM F-actin, 1.2 µM tropomyosin (nmol Pi/mg S1/min) [2]: 103
S1/actin molar ratio of strongly bound myosin heads required for half-maximal change in FRET between AEDANS-TM1b9a/A232C and DABMI-actin (S1/actin molar ratio) [3]: 0.14
S1/actin molar ratio of strongly bound myosin heads required for half-maximal change in FRET between AEDANS-TM2/S269C and DABMI-actin (S1/actin molar ratio) [3]: 0.12
S1/actin molar ratio of strongly bound myosin heads required for half-maximal change in FRET between AEDANS-TM5a/S232C and DABMI-actin (S1/actin molar ratio) [3]: 0.08
S1/actin molar ratio of strongly bound myosin heads required for half-maximal change in FRET between AEDANS-skTM/A269C and DABMI-actin (S1/actin molar ratio) [3]: 0.15
Substance: Chicken skeletal myosin subfragment 1 (S1) (domain or fragment)

Ka [1]: 2.25e+07 M⁻¹
Substance: Recombinant rat non-muscle α-tropomyosin isoform TM2 (natural protein)

Ka [1]: 1.49e+07 M⁻¹
Substance: Ser232Cys-TM5a labeled with AEDANS (natural protein)

Ka [1]: 2.04e+07 M⁻¹
Substance: Ser269Cys-TM2 labeled with AEDANS (natural protein)

— paper PMC3807590
